From patent US8802386B2, “Diagnostic test for determining the concentration of transient proteolytic activity in composite biological media” (Synapse B.V., priority 2002, dated 2014)

System: thrombin generation in platelet-rich plasma of a healthy donor
Assay: Thrombin generation curve (Thrombogram) in platelet-rich plasma, fluorogenic substrate
Format: cell-based, Human
Details: platelet-rich plasma of a healthy donor treated with the inhibitor vs the same plasma untreated; FIG. 9
Protocol: FIG. 9 is an example of an experiment in which platelet-rich plasma of a healthy donor is measured as well as the same plasma treated with a known platelet-activation inhibitor (ReoPro®). The two curves are different in shape, which is obvious from a longer TTP and lower peak height, but the area under the curve of both curves are within 3%, identical. This effect on peak height and TTP in the absence of a clear effect on the ETP is also seen for many mild coagulation factor deficiencies such as von Willebrand disease, deficiencies in factor VII or factor V and in factor VIII or IX deficiencies (haemophiliae). In many instances the Peak height and TTP have proven to be much more sensitive parameters of the thrombin generation curve than the ETP alone.
Firstly, an experiment is described in which thrombin generation in a sample of platelet rich plasma is measured. Solutions used: Human platelet rich plasma, obtained as in Beguin, S., T. Lindhout, and H. C. Hemker. The effect of trace amounts of tissue factor on thrombin generation in platelet rich plasma, its inhibition by heparin. Thromb Haemost, 1989. 61(1): p-25-9. Buffer A: 20 mM Hepes 140 mM NaCl, 5 g/l bovine serum albumin (BSA), pH 7.35; Buffer C: 20 mM Hepes, 140 mM NaCl, with BSA 60 mg/mL, pH 7.35 with 0.02% sodium azide as a preservative.
FluCa solution: To 1750 μL of buffer C are added 200 μL of 1 M CaCl2. The mixture is warmed to 37° C. Then 50 μL of 100 mmoles/liter of the substrate solution in DMSO is squirted in and the tube is immediately vortexed to obtain a perfectly clear solution that is 2.5 mM in substrate. 100 mM in CaCl2, 2.5% in DMSO. […]
The disturbing effects a and b are corrected by continuous on line comparison of the first derivative of the signal from the thrombin generated in the sample (O=f(t)) and the first derivative of the signal produced in the other sample by the calibrator (S=f(t)). […] A and B are continuously calculated during the experiment from the best fitting straight line through S=f(t). […]

B1: ReoPro: a known platelet-activation inhibitor (antibody, chains of the INN, looked up, V domains shown)
VH: EVQLQQSGTVLARPGASVKMSCEASGYTFTNYWMHWVKQRPGQGLEWIGAIYPGNSDTSYIQKFKGKAKLTAVTSTTSVYMELSSLTNEDSAVYYCTLYDGYYVFAYWGQGTLVTVSA
VL: EIVLTQSPVTLSVTPGDSVSLSCRASRDISNNLHWFQQTSHESPRLLIKYASQSMSGIPSRFSGSGSGTDFTLSINSVETEDFGMYFCQQTNSWPYTFGGGTKLEIK
modifications: Fab
TTP (time to peak) of thrombin generation curve: longer
difference in area under the curve (ETP) between treated and untreated plasma: ≤ 3%
peak height of thrombin generation curve: lower
